Experimental findings from the supplement of paper PMC5998384 are described below.

The subject of data set [1] is HeLa Kyoto. Briefly: solubility in G1/S (NP-40 vs SDS abundance) (log2 ratio); higher = more soluble. To be noted: cell cycle stage: G1/S.
The test system of data set [2] is HeLa Kyoto. The data set is described as follows: solubility change mitosis vs G1/S (difference of NP-40 vs SDS log2 ratios) (log2 ratio difference); higher = more soluble in mitosis.
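Wherever solubility change mitosis vs G1/S (difference of NP-40 vs SDS log2 ratios) is given: synchronized HeLa Kyoto cells (double thymidine block for G1/S, nocodazole release for mitosis), protein amounts in NP-40 versus SDS lysates quantified by mass spectrometry, three biological replicates.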
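Wherever solubility in G1/S (NP-40 vs SDS abundance) is given: HeLa Kyoto cells arrested at G1/S by double thymidine block, proteins quantified by TMT10plex mass spectrometry in mild NP-40 versus SDS extracts, three biological replicates.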

With “MSTQDERQINTEYAVSLLEQLKLFYEQQLFTDIVLIVEGTEFPCHKMVLATCSSYFRAMFMSGLSESKQTHVHLRNVDAATLQIIITYAYTGNLAMNDSTVEQLYETACFLQVEDVLQRCREYLIKKINAENCVRLLSFADLFSCEELKQSAKRMVEHKFTAVYHQDAFMQLSHDLLIDILSSDNLNVEKEETVREAAMLWLEYNTESRSQYLSSVLSQIRIDALSEVTQRAWFQGLPPNDKSVVVQGLYKSMPKFFKPRLGMTKEEMMIFIEASSENPCSLYSSVCYSPQAEKVYKLCSPPADLHKVGTVVTPDNDIYIAGGQVPLKNTKTNHSKTSKLQTAFRTVNCFYWFDAQQNTWFPKTPMLFVRIKPSLVCCEGYIYAIGGDSVGGELNRRTVERYDTEKDEWTMVSPLPCAWQWSAAVVVHDCIYVMTLNLMYCYFPRSDSWVEMAMRQTSRSFASAAAFGDKIFYIGGLHIATNSGIRLPSGTVDGSSVTVEIYDVNKNEWKMAANIPAKRYSDPCVRAVVISNSLCVFMRETHLNERAKYVTYQYDLELDRWSLRQHISERVLWDLGRDFRCTVGKLYPSCLEESPWKPPTYLFSTDGTEEFELDGEMVALPPV [KBTBD2]”, in the data set with HeLa Kyoto [1], the “solubility in G1/S (log2)” value is -0.319. Moreover, in the data set with HeLa Kyoto [2], the “solubility change mitosis (log2)” value is -0.00685.

For the substance “MAELRQVPGGRETPQGELRPEVVEDEVPRSPVAEEPGGGGSSSSEAKLSPREEEELDPRIQEELEHLNQASEEINQVELQLDEARTTYRRILQESARKLNTQGSHLGSCIEKARPYYEARRLAKEAQQETQKAALRYERAVSMHNAAREMVFVAEQGVMADKNRLDPTWQEMLNHATCKVNEAEEERLRGEREHQRVTRLCQQAEARVQALQKTLRRAIGKSRPYFELKAQFSQILEEHKAKVTELEQQVAQAKTRYSVALRNLEQISEQIHARRRGGLPPHPLGPRRSSPVGAEAGPEDMEDGDSGIEGAEGAGLEEGSSLGPGPAPDTDTLSLLSLRTVASDLQKCDSVEHLRGLSDHVSLDGQELGTRSGGRRGSDGGARGGRHQRSVSL [SH3BP5L]”, the “solubility in G1/S (log2)” value with HeLa Kyoto [1] worked out at 0.128. Also, in the data set on HeLa Kyoto [2], the “solubility change mitosis (log2)” value is -0.0461.

For “MPPLKSPAAFHEQRRSLERARTEDYLKRKIRSRPERSELVRMHILEETSAEPSLQAKQLKLKRARLADDLNEKIAQRPGPMELVEKNILPVESSLKEAIIVGQVNYPKVADSSSFDEDSSDALSPEQPASHESQGSVPSPLEARVSEPLLSATSASPTQVVSQLPMGRDSREMLFLAEQPPLPPPPLLPPSLTNGTTIPTAKSTPTLIKQSQPKSASEKSQRSKKAKELKPKVKKLKYHQYIPPDQKQDRGAPPMDSSYAKILQQQQLFLQLQILNQQQQQHHNYQAILPAPPKSAGEALGSSGTPPVRSLSTTNSSSSSGAPGPCGLARQNSTSLTGKPGALPANLDDMKVAELKQELKLRSLPVSGTKTELIERLRAYQDQISPVPGAPKAPAATSILHKAGEVVVAFPAARLSTGPALVAAGLAPAEVVVATVASSGVVKFGSTGSTPPVSPTPSERSLLSTGDENSTPGDTFGEMVTSPLTQLTLQASPLQILVKEEGPRAGSCCLSPGGRAELEGRDKDQMLQEKDKQIEALTRMLRQKQQLVERLKLQLEQEKRAQQPAPAPAPLGTPVKQENSFSSCQLSQQPLGPAHPFNPSLAAPATNHIDPCAVAPGPPSVVVKQEALQPEPEPVPAPQLLLGPQGPSLIKGVAPPTLITDSTGTHLVLTVTNKNADSPGLSSGSPQQPSSQPGSPAPAPSAQMDLEHPLQPLFGTPTSLLKKEPPGYEEAMSQQPKQQENGSSSQQMDDLFDILIQSGEISADFKEPPSLPGKEKPSPKTVCGSPLAAQPSPSAELPQAAPPPPGSPSLPGRLEDFLESSTGLPLLTSGHDGPEPLSLIDDLHSQMLSSTAILDHPPSPMDTSELHFVPEPSSTMGLDLADGHLDSMDWLELSSGGPVLSLAPLSTTAPSLFSTDFLDGHDLQLHWDSCL [MKL1]”, in the data set on HeLa Kyoto [1], the “solubility in G1/S (log2)” value is 0.297. For the same substance, the “solubility change mitosis (log2)” value with HeLa Kyoto [2] is -0.244.

As for “MALDPADQHLRHVEKDVLIPKIMREKAKERCSEQVQDFTKCCKNSGVLMVVKCRKENSALKECLTAYYNDPAFYEECKMEYLKEREEFRKTGIPTKKRLQKLPTSM [CMC1]”, the “solubility in G1/S (log2)” value in the data set on HeLa Kyoto [1] is -0.253. Also, in the data set on HeLa Kyoto [2], the “solubility change mitosis (log2)” value stood at 0.26.

As to MICALL2, the “solubility in G1/S (log2)” value in the data set with HeLa Kyoto [1] is 0.151. The “solubility change mitosis (log2)” value with HeLa Kyoto [2] was -0.0133.

“MSSPGIDGDPKPPCLPRNGLVKLPGQPNGLGAASITKGTPATKNRPCQPPPPPTLPPPSLAAPLSRAALAGGPCTPAGGPASALAPGHPAERPPLATDEKILNGLFWYFSACEKCVLAQVCKAWRRVLYQPKFWAGLTPVLHAKELYNVLPGGEKEFVNLQGFAARGFEGFCLVGVSDLDICEFIDNYALSKKGVKAMSLKRSTITDAGLEVMLEQMQGVVRLELSGCNDFTEAGLWSSLSARITSLSVSDCINVADDAIAAISQLLPNLAELSLQAYHVTDTALAYFTARQGHSTHTLRLLSCWEITNHGVVNVVHSLPNLTALSLSGCSKVTDDGVELVAENLRKLRSLDLSWCPRITDMALEYVACDLHRLEELVLDRCVRITDTGLSYLSTMSSLRSLYLRWCCQVQDFGLKHLLALGSLRLLSLAGCPLLTTTGLSGLVQLQELEELELTNCPGATPELFKYFSQHLPRCLVIE [FBXL16]”: the “solubility in G1/S (log2)” value in the data set on HeLa Kyoto [1] was determined as 0.0543. Further, the “solubility change mitosis (log2)” value in the data set on HeLa Kyoto [2] turned out to be 0.212.

As to “MTALSARMLTRSRSLGPGAGPRGCREEPGPLRRREAAAEARKSHSPVKRPRKAQRLRVAYEGSDSEKGEGAEPLKVPVWEPQDWQQQLVNIRAMRNKKDAPVDHLGTEHCYDSSAPPKVRRYQVLLSLMLSSQTKDQVTAGAMQRLRARGLTVDSILQTDDATLGKLIYPVGFWRSKVKYIKQTSAILQQHYGGDIPASVAELVALPGVGPKMAHLAMAVAWGTVSGIAVDTHVHRIANRLRWTKKATKSPEETRAALEEWLPRELWHEINGLLVGFGQQTCLPVHPRCHACLNQALCPAAQGL [NTHL1]”, in the data set on HeLa Kyoto [1], the “solubility in G1/S (log2)” value was 0.0579. Further, the “solubility change mitosis (log2)” value in the data set on HeLa Kyoto [2] stood at 0.29.

As for “MKLHYVAVLTLAILMFLTWLPESLSCNKALCASDVSKCLIQELCQCRPGEGNCSCCKECMLCLGALWDECCDCVGMCNPRNYSDTPPTSKSTVEELHEPIPSLFRALTEGDTQLNWNIVSFPVAEELSHHENLVSFLETVNQPHHQNVSVPSNNVHAPYSSDKEHMCTVVYFDDCMSIHQCKISCESMGASKYRWFHNACCECIGPECIDYGSKTVKCMNCMF [TWSG1]”, the “solubility in G1/S (log2)” value in the data set on HeLa Kyoto [1] worked out at 0.0362. For the same substance, in the data set with HeLa Kyoto [2], the “solubility change mitosis (log2)” value was -0.383.

For the substance “MDSSIHLSSLISRHDDEATRTSTSEGLEEGEVEGETLLIVESEDQASVDLSHDQSGDSLNSDEGDVSWMEEQLSYFCDKCQKWIPASQLREQLSYLKGDNFFRFTCSDCSADGKEQYERLKLTWQQVVMLAMYNLSLEGSGRQGYFRWKEDICAFIEKHWTFLLGNRKKTSTWWSTVAGCLSVGSPMYFRSGAQEFGEPGWWKLVHNKPPTMKPEGEKLSASTLKIKAASKPTLDPIITVEGLRKRASRNPVESAMELKEKRSRTQEAKDIRRAQKEAAGFLDRSTSSTPVKFISRGRRPDVILEKGEVIDFSSLSSSDRTPLTSPSPSPSLDFSAPGTPASHSATPSLLSEADLIPDVMPPQALFHDDDEMEGDGVIDPGMEYVPPPAGSVASGPVVGVRKKVRGPEQIKQEVESEEEKPDRMDIDSEDTDSNTSLQTRAREKRKPQLEKDTKPKEPRYTPVSIYEEKLLLKRLEACPGAVAMTPEARRLKRKLIVRQAKRDRGLPLFDLDQVVNAALLLVDGIYGAKEGGISRLPAGQATYRTTCQDFRILDRYQTSLPSRKGFRHQTTKFLYRLVGSEDMAVDQSIVSPYTSRILKPYIRRDYETKPPKLQLLSQIRSHLHRSDPHWTPEPDAPLDYCYVRPNHIPTINSMCQEFFWPGIDLSECLQYPDFSVVVLYKKVIIAFGFMVPDVKYNEAYISFLFVHPEWRRAGIATFMIYHLIQTCMGKDVTLHVSASNPAMLLYQKFGFKTEEYVLDFYDKYYPLESTECKHAFFLRLRR [CSRP2BP]”, the “solubility in G1/S (log2)” value in the data set on HeLa Kyoto [1] was 0.391. Also, the “solubility change mitosis (log2)” value with HeLa Kyoto [2] is 0.153.
